{
  "source": "patent US20030099647A1",
  "about": "(published 2003)",
  "binders": {"B1": {"name": "GP-A IgG (antibody, V domains shown)", "VH": "QVQLVETGGGVVQPGRSLRLSCAASGFTFSSYAMHWVRQAPGKGLEWVAVISYDGSNKYYADSVKGRFTISRDNSKNTLYLQMNSLRAEDTAVYYCASDLVLTMTSRRAAFDIWGQGTMVTVSS", "VL": "SYELTQPPSVSVSPGQTARITCSGDVLARKYARWFQQKPGQAPVLVIYKDRERPSGIPERFSGSTSGTTVTLTISGAQVEDEADYYCYSAADNRGVFGGGTKLTVLR"}, "B2": {"name": "Fab phage clone \"GP-A\" (Fab, V domains shown)", "VH": "B1 VH", "VL": "B1 VL"}, "B3": {"name": "Fab phage clone \"IFN-A\" (Fab, V domains shown)", "VH": "EVQLQQWGAGLLKPSETLSLTCAVYGGSFSGYYWSWIRQPPGKGLEWIGEINHSGSTNYNPSLKSRVTISVDTSKNQFSLKLSSVTAADTAVYYCARGWPTYVWGSYRPKGYFDYWGQGTLVTVSS", "VL": "EIVLTQSPLSLPVTPGEPASISCRSSQSLLHTNEYNYLDWYLQKPGQSPQLLIYLGSNRAPGVPDRFSGSGSGTDFTLRISRVEADDVGVYYCMQALQTPRTFGQGTKLEIKR"}, "B4": {"name": "IFN-A IgG (antibody, V domains shown)", "VH": "B3 VH", "VL": "B3 VL"}, "B5": {"name": "BS-B Fab (soluble, purified) (Fab, V domains shown)", "VH": "not shown", "VL": "NFMLTQPHSVSESPGKTVTISCTRSSGSIASYYVQWYQQRPGSSPTTVIYEDDQRPSGVPDRFSGSIDSASNSASLTISGLQTEDEADYYCQSYDRNSLVFGGGTKLTVLG"}, "B6": {"name": "BS-B IgG (antibody, V domains shown)", "VH": "not shown", "VL": "B5 VL"}, "B7": {"name": "BS-A Fab (soluble, purified) (Fab, V domains shown)", "VH": "QVQLQQWGAGLLKPSETLSLTCAVYGGSFSGYYWSWIRQPPGKGLEWIGEINHSGSTNYNPSLKSRVTISVDTSKNQFSLKLSSVTAADTAVYYCARGRARNWRSRFDYWGQGTLVTVSS", "VL": "NFMLTQPHSVSESPGKTVTISCTGSSGSIASHYVQWYQQRPGSAPTNVIYEDKERPSGVPDRFSGSIDSSTNSASLTISGLKTEDEADYYCQSYDSSNQWVFGGGTKLTVLG"}, "B8": {"name": "BS-A IgG (antibody, V domains shown)", "VH": "B7 VH", "VL": "B7 VL"}, "B9": {"name": "57E IgG (antibody, V domains shown)", "VH": "QVQLQESGPGLVKPSETLSLTCAVSGGSISSGGYSWSWIRQPPGKGLEWIGYIYHSGSTYYNPSLKSRVTISVDRSKNQFSLKLSSVTAADTAVYYCARGDWGYFDYWGQGTLVTVSS", "VL": "NFMLTQPHSVSESPGKTVTISCTGSSGSIANNYVHWYQQRPGSAPTTVIFEDDQRPSGVPDRFSGSVDSSSNSASLSISGLKTEDEADYYCQSYDNSNSFVVFGGGTKLTVLG"}},
  "data": [
    {"target": "T1, CHO expressed human interferon gamma (hIFNγ) (human, UniProt P01579 24-161, glycosylated (highly glycosylated form purified))", "T1 chain": "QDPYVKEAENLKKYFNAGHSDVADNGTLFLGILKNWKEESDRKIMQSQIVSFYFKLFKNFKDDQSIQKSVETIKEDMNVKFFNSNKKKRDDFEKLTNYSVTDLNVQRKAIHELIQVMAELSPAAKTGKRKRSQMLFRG", "assay": "BIAcore", "units": {"Kd": "nM"}, "values": [
      {"binder": "B1", "Kd": 8},
      {"binder": "B2", "Kd": 150},
      {"binder": "B3", "Kd": 420},
      {"binder": "B4", "Kd": 18},
      {"binder": "B5", "Kd": 83.5},
      {"binder": "B6", "Kd": 0.5},
      {"binder": "B7", "Kd": 84.3},
      {"binder": "B8", "Kd": 6}
    ]},
    {"target": "T1, CHO expressed human interferon gamma …", "assay": "BIAcore", "remark": "another data set of the same source", "units": {"Kd": "nM"}, "values": [
      {"binder": "B1", "Kd": 8},
      {"binder": "B4", "Kd": 18},
      {"binder": "B9", "Kd": 200},
      {"binder": "B6", "Kd": 0.5},
      {"binder": "B8", "Kd": 6}
    ]}
  ]
}
